In US20200181239A1:
Each block holds one molecule with its values, some of them ahead of it.

Assays:
canine PD-L1 (canine) = test: competition ELISA: biotinylated canine PD-L1 pre-incubated with the inhibitor, then bound to coated canine PD-1, streptavidin-HRP
papain = papain (UniProt P00784)
[1] = biological target: T1, human Stefin A (wild type human Cystatin A)
T1 chain: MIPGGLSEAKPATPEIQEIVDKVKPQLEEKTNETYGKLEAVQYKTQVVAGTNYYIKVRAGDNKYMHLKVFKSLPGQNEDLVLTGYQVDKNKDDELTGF

IC50 (read off the curve) (canine PD-L1 (canine)): 20 nM
Molecule: canine PD-1 (receptor)

IC50 (read off the curve) (papain): 1 nM
Molecule: human Stefin A (wild type human Cystatin A) (from UniProt P01040 1-98)

B1: papain (protein)
chain: IPEYVDWRQKGAVTPVKNQGSCGSCWAFSAVVTIEGIIKIRTGNLNEYSEQELLDCDRRSYGCNGGYPWSALQLVAQYGIHYRNTYPYEGVQRYCRSREKGPYAAKTDGVRQVQPYNEGALLYSIANQPVSVVLEAAGKDFQLYRGGIFVGPCGNKVDHAVAAVGYGPNYILIKNSWGTGWGENGYIRIKRGTGNSYGVCGLYTSSFYPVKN
papain activity assay: fluorescence (excitation 380 nm, emission 460 nm) from the substrate N-Carbobenzyloxy-Phe-Arg-7-amido-4-methylcoumarin [1]: hSteA is a potent inhibitor of papain
